Measured values reported in publication PMC12628175.

Target: Recombinant human G-CSFR (granulocyte-colony-stimulating factor receptor) (human) (UniProt Q99062)
Chain of UniProt Q99062 (Q99062 25-333): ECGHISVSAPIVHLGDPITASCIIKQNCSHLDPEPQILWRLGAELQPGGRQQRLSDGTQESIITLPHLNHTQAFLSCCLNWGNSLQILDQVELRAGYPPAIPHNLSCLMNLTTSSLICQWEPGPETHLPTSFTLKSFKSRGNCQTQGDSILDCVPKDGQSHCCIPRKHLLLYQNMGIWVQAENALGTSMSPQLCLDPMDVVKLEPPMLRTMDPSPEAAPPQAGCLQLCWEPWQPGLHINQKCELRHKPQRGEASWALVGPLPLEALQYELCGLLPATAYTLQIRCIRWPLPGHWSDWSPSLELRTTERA

- EC50 (pM) of proliferation of murine NFS-60 cells (48 h, CellTiter-Blue; receptor of the cells); rhG-CSF self-made from E. coli: 2.6 pM
Substance: Recombinant human granulocyte colony-stimulating factor (rhG-CSF) (from UniProt P09919 31-207) (ligand)
